In paper PMC3492137:

What was measured:
[1] = target: human immunoglobulin G, biotinylated; test: microtiter plate dissociation assay (immobilised mutant, hIgG-biotin detected with streptavidin-alkaline phosphatase, A405); conditions: 2 µg/ml mutant conjugated, 6 µM hIgG-biotin, read off a plot, scale: normalized absorbance at 405 nm
[2] = target: Fc portion of human immunoglobulin G, biotinylated; test: yeast surface display end-point dissociation assay, flow cytometry (strep-PE); conditions: dissociation at pH 4.5 for 30 min; parent: est. 0.88; read off a plot; scale: normalized fluorescence
[3] = dissociation at pH 2.5 for 30 min, parent: est. 0.33
[4] = dissociation at pH 3.5 for 30 min, parent: est. 0.91
[5] = dissociation at pH 4.5 for 30 min, parent: est. 1.0

| Substance | response [1, 3] | response [1, 4] | response [1, 5] | response [2] |
| --- | --- | --- | --- | --- |
| Sso7d-hFc with a C-terminal cysteine Y40H | 0.33 | 0.79 | 1 | – |
| Sso7d-hFc, yeast cell surface fusion Y40H | – | – | – | 0.1 |
| Sso7d-hFc, yeast cell surface fusion Sso7d-ev-hFc | – | – | – | 0.06 |
| Sso7d-hFc with a C-terminal cysteine Sso7d-ev-hFc | 0.35 | 0.87 | 1 | – |
